# T1: HRGβ 1 EGF domain 176-246 (UniProt Q02297-6 176-246, 125I-labelled in the crosslinking experiment (residue not stated))
# T1 sequence (looked up): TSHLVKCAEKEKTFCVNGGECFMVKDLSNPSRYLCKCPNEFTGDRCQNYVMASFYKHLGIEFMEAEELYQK
# B1: p85-sErbB3, P21860 20-538 (receptor)
# chain: SEVGNSQAVCPGTLNGLSVTGDAENQYQTLYKLYERCEVVMGNLEIVLTGHNADLSFLQWIREVTGYVLVAMNEFSTLPLPNLRVVRGTQVYDGKFAIFVMLNYNTNSSHALRQLRLTQLTEILSGGVYIEKNDKLCHMDTIDWRDIVRDRDAEIVVKDNGRSCPPCHEVCKGRCWGPGSEDCQTLTKTICAPQCNGHCFGPNPNQCCHDECAGGCSGPQDTDCFACRHFNDSGACVPRCPQPLVYNKLTFQLEPNPHTKYQYGGVCVASCPHNFVVDQTSCVRACPPDKMEVDKNGLKMCEPCGGLCPKACEGTGSGSRFQTVDSSNIDGFVNCTKILGNLDFLITGLNGDPWHKIPALDPEKLNVFRTVREITGYLNIQSWPPHMHNFSVFSNLTTIGGRSLYNRGFSLLIMKNLNVTSLGFRSLKEISAGRIYISANRQLCYHHSLNWTKVLRGPTEERLDIKHNRPRRDCVAEGKVCDPLCSSGGCWGPGPGQCLSCRNYSRGGVCVTHCNFLNGYSKGSQSRMGGGGALQWNCSGGIQ
# modifications: here or on the partner: Secreted glycoprotein (bound to Con A); glycans not carried by the letters.
# B2: p85-sErbB3 (receptor)
# chain: SEVGNSQAVCPGTLNGLSVTGDAENQYQTLYKLYERCEVVMGNLEIVLTGHNADLSFLQWIREVTGYVLVAMNEFSTLPLPNLRVVRGTQVYDGKFAIFVMLNYNTNSSHALRQLRLTQLTEILSGGVYIEKNDKLCHMDTIDWRDIVRDRDAEIVVKDNGRSCPPCHEVCKGRCWGPGSEDCQTLTKTICAPQCNGHCFGPNPNQCCHDECAGGCSGPQDTDCFACRHFNDSGACVPRCPQPLVYNKLTFQLEPNPHTKYQYGGVCVASCPHNFVVDQTSCVRACPPDKMEVDKNGLKMCEPCGGLCPKACEGTGSGSRFQTVDSSNIDGFVNCTKILGNLDFLITGLNGDPWHKIPALDPEKLNVFRTVREITGYLNIQSWPPHMHNFSVFSNLTTIGGRSLYNRGFSLLIMKNLNVTSLGFRSLKEISAGRIYISANRQLCYHHSLNWTKVLRGPTEERLDIKHNRPRRDCVAEGKVCDPLCSSGGCWGPGPGQCLSCRNYSRGGVCVTHCNFLNGYSKGSQSRMGGGGALQWNCSGGIQ
# modifications: Secreted glycoprotein (bound to Con A); glycans not carried by the letters.
# Experiments:
# ErbB2 = ErbB2 (UniProt P04626); experiment: inhibition of 125I-HRGβ177-244 (0.1 nM) binding to T47D cells; 2C4 varied
# HRGβ177-244 [1] = target: HRGβ177-244 (UniProt Q02297); experiment: 125I-HRGβ177-244 binding to ErbB3-IgG homodimer (positive control), 96-well plate, Scatchard analysis
# HRGα EGF domain177-241 = HRGα EGF domain177-241 (UniProt Q02297); experiment: cell-based or functional assay
# [2] = target: T1, HRGβ 1 EGF domain 176-246; experiment: cell-based or functional assay
# [3] = target: HRGα EGF domain177-241, Q02297; experiment: cell-based or functional assay
# HRGβ177-244 [4] = target: HRGβ177-244 (UniProt Q02297); experiment: inhibition of 125I-HRGβ177-244 (0.1 nM) binding to T47D cells; p85-sErbB3 varied
# HRGβ177-244 [5] = target: HRGβ177-244 (UniProt Q02297); experiment: 125I-HRGβ177-244 binding to immobilized p85-sErbB3, 96-well plate, Scatchard analysis
molecule,measurement,setting,value
"2C4, a monoclonal antibody specific for the ErbB2 extracellular domain",IC50,ErbB2,0.55 nM
ErbB3-IgG fusion protein (from UniProt P21860 20-643) (Fc fusion),Kd,HRGβ177-244 [1],4.7 nM
p45-sErbB3 (from UniProt P21860 20-329) (receptor),"inhibition of HRGα-stimulated ErbB3 activation (tyrosine phosphorylation, densitometry) in Ba/F3 (ErbB2+ErbB3) cells, 1 µg/ml HRGα, conditioned medium",HRGα EGF domain177-241,40%
same,"decrease of ligand-stimulated ErbB3 tyrosine phosphorylation in Ba/F3 (ErbB2+ErbB3) cells, 50 and 100 ng/ml HRGβ, conditioned medium",[2],60%
B1,"decrease of HRGα-stimulated ErbB3 activation in Ba/F3 (ErbB2+ErbB3) cells, 2 µg/ml HRGα, conditioned medium",[3],30%
same,"inhibition of HRGα-stimulated ErbB3 activation (tyrosine phosphorylation, densitometry) in Ba/F3 (ErbB2+ErbB3) cells, 1 µg/ml HRGα, conditioned medium",[3],80%
B2,IC50,HRGβ177-244 [4],0.45 nM
same,Kd,HRGβ177-244 [5],3 nM
same,"inhibition of HRGβ-stimulated MCF7 cell growth, 0.4 nM HRGβ, 40 nM p85-sErbB3 (100-fold molar excess), 5,000 cells/well",[2],75%
same,"inhibition of HRGβ-stimulated MCF7 cell growth, 0.4 nM HRGβ, 40 nM p85-sErbB3 (100-fold molar excess), 8,000 cells/well",[2],90%

# Reference: patent US20080267961A1 (published 2008)
